Blank lines part the entries; values can stand above or below the substance they belong to.
Assays:
[1] = target: soluble part of FloA (flotillin A) with 6xHis tag (B. subtilis) (UniProt P54466); assay: SEC; FloA6His after Ni-NTA on HiLoad 26/600 Superdex 200 pg, 1.5 ml/min, 20 mM HEPES, 200 mM NaCl, 20 mM MgCl2, 20 mM KCl, pH 7.5
P54466 = assay: SEC; HMW fraction of FloA-Strep run again on gel filtration undiluted, 3 fold and 5 fold diluted; peak areas measured
[2] = target: soluble part of FloA (flotillin A) with Strep-tag (B. subtilis) (UniProt P54466); assay: SEC; FloAstrep after Strep-Tactin on Superose 6 10/300 GL, 0.5 ml/min, 100 mM Tris-Cl, 150 mM NaCl, pH 7.5

stoichiometry N [1]: 2
Substance: soluble part of FloA (flotillin A) with 6xHis tag (from UniProt P54466 56-331) (domain or fragment)

Substance: soluble part of FloA (flotillin A) with Strep-tag
percent of the protein in the HMW fraction (5-fold diluted) (P54466): 82% are in the HMW fraction and 12% in the LMW peak
percent of the protein in the HMW fraction (undiluted or 3-fold diluted) (P54466): about 90% of the proteins are in the HMW fraction
percent of the protein in the LMW peak (5-fold diluted) (P54466): 82% are in the HMW fraction and 12% in the LMW peak

stoichiometry N [2]: 4
Substance: soluble part of FloA (flotillin A) with Strep-tag (from UniProt P54466 56-331) (domain or fragment)

— PMC4928834
